Laboratory results: patent publication US20240352105A1, “COMPOSITIONS AND METHODS FOR NEUTRALIZING ANTIGENS” (PACAGEN, INC, priority 2023, published 2024)

Assays:
[1] = target: T1, recombinant His-tagged Der p1 (dust mite, UniProt P08176 99-320, limits assumed); assay: ELISA, Der p1-His 0.016 µg/mL, repeat 2
T1 sequence (looked up): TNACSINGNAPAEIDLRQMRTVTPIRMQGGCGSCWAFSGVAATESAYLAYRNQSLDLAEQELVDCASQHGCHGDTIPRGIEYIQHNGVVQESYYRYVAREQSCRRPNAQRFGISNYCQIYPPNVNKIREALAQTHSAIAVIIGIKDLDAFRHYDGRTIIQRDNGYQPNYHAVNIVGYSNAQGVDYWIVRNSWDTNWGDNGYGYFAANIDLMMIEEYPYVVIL

[2] = target: T1, recombinant His-tagged Der p1; assay: ELISA, Der p1-His 10 µg/mL, repeat 2
[3] = target: T1, recombinant His-tagged Der p1; assay: ELISA, Der p1-His 2 µg/mL, repeat 1
[4] = target: T1, recombinant His-tagged Der p1; assay: ELISA, Der p1-His 0.0032 µg/mL, repeat 2
[5] = target: T1, recombinant His-tagged Der p1; assay: ELISA, Der p1-His 10 µg/mL, repeat 1
[6] = target: T1, recombinant His-tagged Der p1; assay: ELISA, Der p1-His 0.08 µg/mL, repeat 1
[7] = target: T1, recombinant His-tagged Der p1; assay: ELISA, Der p1-His 0.08 µg/mL, repeat 2
[8] = target: T1, recombinant His-tagged Der p1; assay: ELISA, Der p1-His 0.4 µg/mL, repeat 1
[9] = target: T1, recombinant His-tagged Der p1; assay: ELISA, Der p1-His 2 µg/mL, repeat 2
[10] = target: T1, recombinant His-tagged Der p1; assay: ELISA, Der p1-His 0.0032 µg/mL, repeat 1
[11] = target: T1, recombinant His-tagged Der p1; assay: ELISA, Der p1-His 0.00064 µg/mL, repeat 1
[12] = target: T1, recombinant His-tagged Der p1; assay: ELISA, Der p1-His 0.016 µg/mL, repeat 1
[13] = target: T1, recombinant His-tagged Der p1; assay: ELISA, Der p1-His 0.00064 µg/mL, repeat 2
[14] = target: T1, recombinant His-tagged Der p1; assay: ELISA, Der p1-His 0.4 µg/mL, repeat 2
[15] = target: T2, Fel D1 epitope peptide SDAB22110-115-28AA-2 (cat); assay: ELISA on Fel D1 epitope peptide; the row names two epitopes (SEQ ID NO: 61 and 58) and one EC50
T2 peptide: ENARILKNCVDAKM
Protocol: (§1) 2 microgram per milliliter (μg/mL) target antigen is coated in a 96-well plate and ELISA assay is performed after incubation with candidate VHHs. The binding EC50 of each clone is calculated using Prism GraphPad. The positive control antibody is involved as an internal control.
(§2) Isolated VHH clones were further validated by performing an ELISA assay as described in Example 1. Binding results are shown in FIG. 15B-15D for the epitope of SEQ ID NO: 61. Binding results are shown in FIG. 16 for the epitope of SEQ ID NO: 59. Binding results are shown in FIG. 17A-17E for the epitope of SEQ ID NO: 60. Binding results are shown in FIG. 18 for the epitope of SEQ ID NO: 58.

Fel D1 [16] = assay: ELISA binding assay of anti-Fel d1 VHH clones on Fel D1 epitopes; set-up: species or system cat
Protocol: as §1
Four distinct epitopes of Fel D1 were selected to be used for further identification. Peptides were synthesized for the four epitopes for VHH identification.
as §2

[17] = Thermostability (Tm, Tonset, Tagg) by Nanotemper DSF; assay type: physicochemical; set-up: key to Tm2 / Tagg / Tm1 / Tm / Tm3 / Tonset / Tonset ø (mean) / Tagg ø (mean): temperatures in °C; conditions: for Tm: single melting point
Summary of the method: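 Isolated VHH clones were heated from 20 °C to 95 °C at 1 °C/min using DSF. Tm, Tonset and Tagg were derived from the thermal curves. Where several melting transitions occurred, each was reported in order (Tm1, Tm2, etc.).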

Fel D1 [18] = target: T3, Fel D1 (Felis catus, UniProt P30438+P30440); assay: Size Exclusion Chromatography test of Fel D1 neutralization (tetramer formation); set-up: species or system cat; conditions: 30 ug Fel D1 and 30 ug 1-C3 pre-incubated at 37° C. for 4 hours
T3 sequence (P30438 23-92): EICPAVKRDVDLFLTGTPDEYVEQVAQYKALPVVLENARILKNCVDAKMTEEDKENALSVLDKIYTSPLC
T3 sequence (P30440 18-109): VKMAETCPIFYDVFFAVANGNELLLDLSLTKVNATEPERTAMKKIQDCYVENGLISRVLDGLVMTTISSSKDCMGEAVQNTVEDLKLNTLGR
Protocol: Functional validation was also performed testing the capability of an exemplary clone to neutralize Fel D1. Fel D1 is naturally a weaker tetramer that causes allergic reactions by causing cross-linking of neighboring IgEs on immune cells (mast cells, etc.). […] On the SEC, there are two distinct peaks for pure Fel D1, the earlier peak representing the tetramer and the laker peak representing the monomer (FIG. 20A). Conditions for this SEC graph are (Column: Zenix-C SEC-80, 7.8×300 mm, 3 um, 80 Å; Sample: Fel D1; Sample Volume: 30 μL (25 ug); Mobile phase: 150 mM phosphate buffer, pH 7.0; Flow rate: 0.7 mL/min; Detection: UV 280 nm; System: Thermo Vanquish Flex.
Conditions for this SEC graph are (Column: Zenix-C SEC-80, 7.8×300 mm, 3 um, 80 Å; Sample: 1-C3; Sample Volume: 30 μL; Mobile phase: 150 mM phosphate buffer, pH 7.0; Flow rate: 0.7 mL/min; Detection: UV 280 nm; System: Thermo Vanquish Flex.
When clone C3 and Fel D1 are incubated together for 4 hours at 37° C. and then assayed, the two Fel D1 peaks were no longer detected and only the C3-Fel D1 complex is detected. […]

[19] = Average of two replicates, anti-Fel d1 VHH
[20] = Average of two replicates, anti-Fel d1 VHH, in °C (unit assumed)
[21] = Replicate 1, in °C (unit assumed)
[22] = Replicate 2, in °C (unit assumed)
[23] = anti-Fel d1 VHH, in °C (unit assumed)

Question: Which results are given for known Der p1 antibody (clone 10B9)?
Answer: OD at 450 nm [1]: 0.17 OD; OD at 450 nm [2]: 4.4 OD; OD at 450 nm [3]: 4.03 OD; OD at 450 nm [4]: 0.12 OD; OD at 450 nm [5]: 4.37 OD; OD at 450 nm [6]: 0.58 OD; OD at 450 nm [7]: 0.49 OD; OD at 450 nm [8]: 1.8 OD; OD at 450 nm [9]: 4.31 OD; OD at 450 nm [10]: 0.25 OD; OD at 450 nm [11]: 0.13 OD; OD at 450 nm [12]: 0.2 OD; OD at 450 nm [13]: 0.12 OD; OD at 450 nm [14]: 1.87 OD

B1: SDAB22110-1-1-C3 (VHH)
VHH: QLQLVESGGGLVQPGGSLRLSCEASGFTFKYYTMSWYRQAPGKERELVATITNGDRTNYADSVKGRFTISRDNAKNTLYLQMNSLKPYDTAVYYCNRHLPLLQIWGQGTQVTVSS
notes: Expressed from a prokaryotic vector
Question: With B1 as the molecule, how does the EC50 [15] read?
Answer: 0.352 µg/mL

B2: SDAB22110-3-1-D9-1: anti-Fel d1 VHH clone, SEQ ID NO: 52 (protein)
VHH: AVQLVESGGGLVQPGGSLRLSCIISGFTSVSYSIVWFRQAPGKGREGVSCIGSSGGSTDYIDSVKGRFTISRDSAKNTVYLQMDCLKPEDTAVYYCAALRDVYRLCVIDYMNNDYWGQGTQVTVSS
Question: What does the source list for B2?
Answer: EC50 (Fel D1 [16]; Epitope Recognized FAVANGNELLLDLS (SEQ ID NO: 59)): 12.940 µg/mL; Tagg ø (mean) [17, 19]: 42.78; Tonset ø (mean) [17, 19]: 32.74; Tm ø (mean), first melting point (Tm1) [17, 20]: 41.13; Tm ø (mean), second melting point (Tm2) [17, 20]: 52.88; Tagg ([17]; Replicate 1): 42.76; Tonset ([17]; Replicate 1): 32.57; Tm, first melting point (Tm1) [17, 21]: 41.01; Tm, second melting point (Tm2) [17, 21]: 52.86; Tagg ([17]; Replicate 2): 42.80; Tonset ([17]; Replicate 2): 32.90; Tm, first melting point (Tm1) [17, 22]: 41.25; Tm, second melting point (Tm2) [17, 22]: 52.91; Tagg ([17]; anti-Fel d1 VHH): 42.30; Tm [17, 23]: 47.50

B3: SDAB22110-1-1-C3: anti-Fel d1 VHH clone, SEQ ID NO: 49 (protein)
VHH: AVQLVESGGGLVQPGGSLRLSCAASGFTFTNYAMRWYRQAPGKERELVAAIPTSGGYTYTADSVKGRFTISRDNAKNTVYLQMNSLKPEDTAVYYCYGLRTLSDYYWGQGTQVTVSS
Question: For B3, which “Fel D1 tetramer formation (SEC)” value (Fel D1 [18]) is on record?
Answer: preventing the Fel D1 tetramer from forming

Question: What about the EC50 (Fel D1 [16]; Epitope Recognized ENARILKNCVDAKM (SEQ ID NO: 61), VAQYKALPVVLENA (SEQ ID NO: 58)) of the same molecule?
Answer: 0.352 µg/mL

Question: And the Tagg ([17]; anti-Fel d1 VHH)?
Answer: 58.93

Question: What about the Tm [17, 23] of the same molecule?
Answer: 66.50
